This data set concerns the molecule itself. Briefly: self-association; SDS-PAGE under reducing (Mr 26,900) versus non-reducing (Mr 114,000) conditions.

Data on one protein can be found in patent US20060107351A1 (FLORIGENE, published 2006).

B1: Rtms-5 colored protein tagged with hexahistidine at its C-terminus (other)
chain: SVIATQMTYKVYMSGTVNGHYFEVEGDGKGKPYEGEQTVKLTVTKGGPLPFAWDILSPQCQYGSIPFTKYPEDIPDYVKQSFPEGFTWERIMNFEDGAVCTVSNDSSIQGNCFTYHVKFSGLNFPPNGPVMQKKTQGWEPHSERLFARGGMLIGNNFMALKLEGGGHYLCEFKTTYKAKKPVKMPGYHYVDRKLDVTNHNKDYTSVEQCEISIARKPVVAHHHHHH
notes: also called RTms-5.pep; Rtms5.pep
In the case of B1, the binding result was “binds”.
